Assay results reported in the DeepSol protein solubility set.

Test: soluble on expression in E. coli; label from the status in PepcDB or PDB records

Sequence | soluble on expression in E. coli
MGSDKIHHHHHHMNAVLPRLAMRDIVKSFGSVRVLDGVSLDVMPGEIVALLGSNGAGKSTLMKILTANYTKNAGDIRVNDTLVDFASPRDAARVGITFLPQEISVFPELSVAENICMSADSKGTVDWSGMARRSAAVLDDLGFGHLSPDMLVADLPVAERRIIEIARALEGQADILVMDEPTASLSEQESEQIFTILRRLKDRGTSIVYISHYLKEVFEISDRIVVLRDGLNAGEFDPTTADVTKVVGAMLGKAAGSMFDDRDPLPASAPVVFTCAGLTLPGVIEDVSFDLRAGEILGIFGLIGSGVEVLGRAIFGTQGRPPAGAMTLNGTPYTPVSPRKGKEAGIGFVTAERKTDGIMADMSVRENIVAAFQSDLGHGPFTSPAREAAHTLDWIEKLGIKTSGPEQAIRLLSGGNQQKVCVARWLNPKVKMLILEEPTRGVDVGARREIYSHLVDFARSGLAVLVLSSDVEEVAGLSDRSLVIDRGRILAEFGRGATPGDLMAASAQSEHHD | not soluble
MGSDKIHHHHHHMNDINLLPLTSAYLDLILEWRNNPEVRRNMYTSHVISKAEHYAWFKKLESDNTKQCFIFVLNGVPSGFISFVDINLNSKSATWAFYSGNTSVRGIGSLMEVSALNYAFSTLGLHKLSCEVLEFNNMVVRFHEKYGFHVEGVFKKHHFSEGEYWDIYRLAIFNEEWARCKLEINLKKQSISPGSSYRENVFFTNENIIGFSALSGDCNQIHLNKQYAIKNGFDNNLVHGFLVGSVFSKVFGTRFPGDGCIYISQSLSFLSPVYPDDLLEASFVVLSKIGRKLVVETSITNLHSNKKVIDGVAELLISMDSQIGYLNQYL | not soluble
MGSDKIHHHHHHMNDQLTEYRIKKAPYYRATGDETELYEAAYSVRMPMMLKGPTGCGKTRFVEYMAYKLGKPLITVACNEDMTASDLVGRFLLDPQGTRWQDGPLTLAARLGAICYLDEVVEARQDTTVVIHPLTDNRRVLPLEKKGELVQAHPDFQLVISYNPGYQSLMKDLKQSTKQRFGALDFNYPDHEIEAEIVSHETGVNKEVADKLVSIAERARNLKGHGLDEGISTRMLVYAGSLINKGVEAKAACRVTLVRPITDDPDMRDALDAAVTTYF | not soluble
MGSDKIHHHHHHMNDWDRLYDRAETLLSRLEGLLRADAPEPEWNAAAFRWRKTGRSGFIEPVRYPDSITFEALQSIGRQKSLVDQNTRQFVRHHPANNVLLTGARGTGKSSLVKAMLNKYAADGLRLIEVEKHHLVDLPEIVEKVYRRPERFILYCDDLSFESGEPGYKALKVVLDGSIATASENVLVYATSNRRHLMPEYRVDNQDTRHTGGEIHPSEAVEEKTSLSERFGLWISFYPFDQEQYLDIVARWLAYFGIDKMDDSIREEALRWALGRGSRNGRVAWQFARDRAGREKAGQKPADKTEFRAEQ | not soluble
MGSDKIHHHHHHMNEAELLDPPLETPPRPAVKVRGEPLAELPQDLYIPPDALEVFLEAFEGPLDLLLYLIRKQNLDVLDIPMAALTQQYMAYVEAARATRLELAAEYLLMAAVLIDIKSRMLLPRREQADEPGEADDPRAELVRRLLEYEQMKRAGQQLDALPQAGRDFDTVSVFLPAAAKRLPSVHAEELAAAWLAILSRAKNRTHHRIGRQELSIREHMSRILKRLTPGEFMEFKELFPEASTVHELVVTFLAVLELSKETLLDVTQAEPFAPIYVKLHESAAE | not soluble
MGSDKIHHHHHHMNELVSIITPCYNSAATIRETIRSVIAQSYVNWELLIIDDCSNDDSVKIIMEFMDTDSRIYYLKTEHPSGGPTLPRNVGIQAAKGRFIAFLDSDDIWLPNKLSTQLPLFINDNVAIVYSDYEKISEEGNRTGRIVKSDPYHHYKSLLCGNELGCLTVVYDTQKIGKRYFKFIGHEDYNLWLDILKEGFIAINTNICLALYRIRKGSVSSNKLRVIKWIWHIYRVEQKKTIWLSLYYSLSDLNKSLFKYLK | not soluble
MGSDKIHHHHHHMNESSTHDSVADDPTEVSTDTVLDIALSLFSELGFSDAKLEAIAKKSGMSKRMIHYHFGDKRGLYICCLEEAVRRLRPTAEEMYLASAVPVEGVRTIVEAVFHRYVQHPEAVRMLQMENLHHYGKVAEASPLSDQSAITLQLDRLLMLGQDAGAFRPGISAQDVFTLIASIAVFRINSRSTTLNLYGIDMMNGDNTDGMRRMAVDTVLAFLTSNLKSADEDSYLSRPLLSTVTEHVDEEGSYEVAADPFS | not soluble
MGSDKIHHHHHHMNFLAHLHLADNSKTDLAANLAGDFAKGNIADHPKALQQGIWLHRQIDSLTDSHELTKELKAAFPKTLQRAAPILIDLAFDHMLAKYWEEYHHLSLPDFAQQAYLALSSAEQLPVNLSDLIIRMRQENWLIAYESREGLNQTIKAVSKRVSKPEIFDGAIDTVKRMDTEIEIAFRTFYPQLMAYSRIWTRQTPPEFL | not soluble
MGSDKIHHHHHHMNIAFVINPVAGLGATLNLKGSDGLALEDVSKSISIVRSHRFLKKLDFNGLHFFVPSGCMGESEVSIYTKEYDVIYTPSSPTTRQDTINFVKSIESADLLVFVGGDGTARDILNSRNDLPVIGVPAGVKMYSSVFAISPERAADAVNQVAKGNYRIDKAEVVDIDEELYRKGILSVKRYGQLKVPEAQYIVENSKAEYDIAGAEDIAEYVIEHMADETYIIGPGNTCKTIEEEMGIKSNVLGFDILRNKKLIKEDASESEIYEACSDKCMLVISPVGGQNFLLGRGNKQISDRILERVGEENLIVVSSPSKAEHLKYVYIDTQIPLWSNGYVKVLVGYGRYKLVKVIR | not soluble
MGSDKIHHHHHHMNITPKSIIGDIKKKNGNINRVIFTGCGASMADLYPGYYFISHESKHLLSSIMQANEFNYDTPKDVNENTIVITASLGGSTPESVEATKHARELGAHVVTLSHVPNSAIINEAEYSLVHGFEEDYAHKTEKMTLALQLAIEIVNQFEGYDYYADAQKAFEGLFNLINQEANMVAPAAEEFVTKYKDENTIYVLGSGASADVAYSTASFLFMEMQWISSPTIHSGEFFHGPFELALKDTPYLLFMSDGNTRHLDARAMAFLQRFDTKLTVIDAKDHGLASIASSNVIDYFNPMLITGVMRVYAEKLAEARQHPLTQRRYMWKLENY | not soluble
MGSDKIHHHHHHMNKEIPKFLENTQIEKFICNELDYKKEILRELKELLENFNTINVKNSINSKYIALLMLSIFNAFHFKKELNKNLVNSLDAIIFAIKSIGTDESFIVLFKAFLHANVEVSSNEDAPGEIIIKLLGNIKSPIEFNIAAKNQNKLKKITAKHAGFKKALTSNYMPKDYKNSVYEFIKILIPIGRIVKIIDKKQIEIKGTRTKKFSTADHFF | not soluble
MGSDKIHHHHHHMNKELASKFLSSIKHEREQDIQTTSRLLTTLSIQQLVQNGLAINNIHLENIRSGLIGKLYMELGPNLAVNDKIQRGDIKVGDIVLVRPAKTKVNTKTKPKVKKVSEDSNGEQAECSGVVYKMSDTQITIALEESQDVIATTFYSYSKLYILKTTNVVTYNRMESTMRKLSEISSPIQDKIIQYLVNERPFIPNTNSFQNIKSFLNPNLNDSQKTAINFAINNDLTIIHGPPGTGKTFTLIELIQQLLIKNPEERILICGPSNISVDTILERLTPLVPNNLLLRIGHPARLLDSNKRHSLDILSKKNTIVKDISQEIDKLIQENKKLKNYKQRKENWNEIKLLRKDLKKREFKTIKDLIIQSRIVVTTLHGSSSRELCSLYRDDPNFQLFDTLIIDEVSQAMEPQCWIPLIAHQNQFHKLVLAGDNKQLPPTIKTEDDKNVIHNLETTLFDRIIKIFPKRDMVKFLNVQYRMNQKIMEFPSHSMYNGKLLADATVANRLLIDLPTVDATPSEDDDDTKIPLIWYDTQGDEFQETADEATILGSKYNEGEIAIVKEHIENLRSFNVPENSIGVISPYNAQVSHLKKLIHDELKLTDIEISTVDGFQGREKDVIILSLVRSNEKFEVGFLKEERRLNVAMTRPRRQLVVVGNIEVLQRCGNKYLKSWSEWCEENADVRYPNIDDYL | not soluble
MGSDKIHHHHHHMNKNEIANLKMQGFILQNDGKHFALRIKTDAGCMDSEKIDKLSEISKKYGRNYISFTVRLCVEIPWINYEDIPKIKEELKNLSLISGGTGNTVRPLVACKGTVCTHGLIDSQKICNELDSLFFGKKLPHKFKIGISGCPNNCAKAQLNDIGIIGQRIPKINEENCNGCTLCLKSCSVDAITIVDKKAVIDYEKCVNCGKCGKSCKRKCISLKDGVLISVGGKFGKKYKIGENIGIYDAPNLEKIVSEIMDYFKENADSHERFGDTIDRTGISSLKEKLKDY | not soluble
MGSDKIHHHHHHMNLKHIEAFRAVMVSGSMTAAAKALFTSQPNVSRLIAQLERDTGLQLFQRSGVRLIPTSEGEAFFREVERAFVGLQGLANAAAQIRNLGSGRLRIAAMPSAGMTLVPHAIKRFVELFPDVTVSLHVNTSGTVNHWTASQFCDLGVAVYVSEASDCEVEQLSDLAAVCVMPAAHRLAAKRSIKPEDLEGESFISLCHGDGTRALMDEVFQRAGVQRVMAIEAQYTAMCCEMVRHGMGVTLAHPIVARDFAGPDIAIRPFLPATRFQTYLLFPPHRPRERLASAFVEVLRELHDELLAEVVVPTPSVGRRRVVRSASKG | not soluble
MGSDKIHHHHHHMNMPNSFSNSHIYLGNVMHRRFSPKKHSFDYRLFMLALDVADVEKAQGGFGVFGFSWYRPLRFVETDYLKESIKDNSKDNLAGDPRSLSHRIKNKVHELAGYADIKRIVMLVQVRCFGIYFSPANFYFCYDQDDKCTQMLAEVSNTPWNERHYYLVDLLKEEGDKTTKKMFQVSPFMDLAMTYFWQVTPPCNGNDKLLVKIENKRVNDESGTVSKLFDASLVMRRKPFTKASLLRIWGQLPVMTMKVVVTIYWQALKLFIKRVPFIGYQKPS | not soluble
MGSDKIHHHHHHMNNESLTLDAYPVEVEFPDIRPYAEGNCGIPYVFTFDSGVAGPHVMVNALTHGNEVCGAITVKGLLDAGVKPRRGRVTFAFANVDAYACFDPARPDASRFVDQDFNRVWTSAVLDDASRDSSELRRARAMRPVIDTVDLLLDLHSMHEKSRPLIVSGPLDKGIALARALGAPADVIVDEGHPEGRRMRDYADFGDPASARNALLIECGQHWETSAVTVARDSAARFLLNAGVIDAQDVPTGWLQPLAATQRVVRVTEPVVANSMDFRFAGPYTGLETFMEAGTVIGWRDGEPVVTPYPNCVLVMPSLRQLRPGVTVVRLGQLEA | not soluble
MGSDKIHHHHHHMNNTPANRLQPKHFTLIKAIGDLGQLSLAAGQVSMTQPAASRMLAEIERIVGAAVFLRTPKGMEATEVGAALVRRSEILLQEMREAMREVDAIKRGASGTVSVGAVTGGALGYIVPAISTLKAEARTADIYVDVAPSGTLISNLVSGQFDFVLGRIPVGVDARQFHIRHARTEEVDLIVHQSHPLANSTDLRMTDLLHFPWVMQGPGAPVRQAVENAFIDAGTTLPVDVVNTTSLLVMIAMIAASNAITPLSREVSDLLCRQTTGAGLCRLKIRRPIIVLPYHLISMKNRHMSTLAARLQDLVLQEFITR | not soluble
MGSDKIHHHHHHMNQQPEQITALYCRLSRDDELQGDSNSIVNQKSILSKYAEEHRLLNTRFFIDDGVSGTTFDRPGLNEMLALIDEEKVSTVIVKDMSRLGRDYLKVGLLTEIQLPEKGVRFIAINDGVDSNQGVSEFIAFRNVINEWYAKDTSKKIKAVFTAKGQSGKPLSTFPPYGYIKDPEDKNRWIVDEAAAEVVREIFRLCMEGNGPTKIARILSERRVLIPSAYAKSNGRSAPADVPADRCKWCDSTVAHILERKEYLGHTVNFKTYKESFRNKKQRKNPKENQMVFENTHQPIIEQDVWDTVQQLR | not soluble
MGSDKIHHHHHHMNRGMKNYLSQTNYRDAMKAADIMNSNVIYATLPSTRDKVLELFKKYEISAVPVLKNSELVGIVTRKDILRKIEENQLALLMTPNPTTVDADADVKEVVKILTSTPFRRLPVVKDGKLVGIITVRDIIKKIAEMNIEKPVKSYITPYIVCVWEETPLNVVGEIMRLSNSEFVGILNDNDELVGVIDEKIMLTETLIEDFIEQTAYSSSSDTDDSWSWDSVRDYTVKYFEVSVVKLPKEPVKNFMKKPEFVYPQTSVSKCAKRMVRSDLDYIPVLDSENRLIGTVRDKDLIRVLLEV | not soluble
